The results in this text go back to publication PMC4495402.

This test deals with Xenopus histone H3/H4 tetramer (Xenopus), P84233. Description: SEC-MALS. As to conditions: remark: other sources report otherwise. A general note: SEC sorts molecules by how far they enter the pores of the column.

B1: human Spt2 histone-binding domain 571–685 (hSpt2C), Q68D10 571-685 (domain or fragment)
chain: GPQRLPFPTGYKRQREYEEEDDDDDEYDSEMEDFIEDEGEPQEEISKHIREIFGYDRKKYKDESDYALRYMESSWKEQQKEEAKSLRLGMQEDLEEMRREEEEMQRRRAKKLKRR
For the molecule B1, the stoichiometry N was found to be 1.

B2: SUMO-tagged hSpt2C(571–685), Q68D10 571-685 (domain or fragment)
chain: GPQRLPFPTGYKRQREYEEEDDDDDEYDSEMEDFIEDEGEPQEEISKHIREIFGYDRKKYKDESDYALRYMESSWKEQQKEEAKSLRLGMQEDLEEMRREEEEMQRRRAKKLKRR
Consider B2, for which the stoichiometry N stood at 1.

As usually defined, the stoichiometry N is the number of molecules, sites or subunits per partner or assembly.
